From patent publication US20150322162A1
Changes are numbered by the printed parent chain.

B1: MH2-12 anti-c-Met/anti-HER2 bispecific antibody (bispecific antibody, part only; not given: nothing needed for binding, IgG2, not shown: another chain or arm of the molecule; small tags and cut ends)
heavy: EVQLVESGGGLVQPGGSLRLSCAASGFTFTDYYMSWVRQAPGKGLEWLGFIRNKANGYTTEYSASVKGRFTISRDNSKNTLYLQMNSLRAEDTAVYYCARDNWFAYWGQGTLVTVSSASTKGPSVFPLAPCSRSTSESTAALGCLVKDYFPEPVTVSWNSGALTSGVHTFPAVLQSSGLYSLSSVVTVPSSNFGTQTYTCNVDHKPSNTKVDKTVERKCCVECPPCPAPPVAGPSVFLFPPKPKDTLMISRTPEVTCVVVDVSHEDPEVQFNWYVDGVEVHNAKTKPREEQFNSTFRVVSVLTVVHQDWLNGKEYKCKVSNKGLPAPIEKTISKTKGQPREPQVYTLPPSREEMTKNQVSLTCLVKGFYPSDIAVEWESNGQPENNYKTTPPMLDSDGSFFLYSKLTVDKSRWQQGNVFSCSVMHEALHNHYTQKSLSLSPGKGGGGSGGGGSEVQLVQSGAEVKKPGESLKISCKGSGYSFTSYWIGWVRQMPGKGLEWMGIIYPGDSDTRYSPSFQGQVTISADKSISTAYLQWSSLKASDTAMYYCARHYYDSSGYSYFPDYWGQGTLVTVSS
VL: QTVVTQEPSFSVSPGGTVTLTCGLSSGSVSTSYYPSWYQQTPGQAPRTLIYSTNTRSSGVPDRFSGSILGNKAALTITGAQADDESDYYCVLYMGSGIWVFGGGTKLTVL
light: DIQMTQSPSSLSASVGDRVTITCKSSQSLLASGNQNNYLAWYQQKPGKAPKMLIIWASTRVSGVPSRFSGSGSGTDFTLTISSLQPEDFATYYCQQSYSRPYTFGQGTKVEIKRTVAAPSVFIFPPSDEQLKSGTASVVCLLNNFYPREAKVQWKVDNALQSGNSQESVTEQDSKDSTYSLSSTLTLSKADYEKHKVYACEVTHQGLSSPVTKSFNRGEC
B2: MH2-18 anti-c-Met/anti-HER2 bispecific antibody (bispecific antibody, part only; not given: nothing needed for binding, IgG2, not shown: another chain or arm of the molecule; small tags and cut ends)
heavy: EVQLVESGGGLVQPGGSLRLSCAASGFTFTDYYMSWVRQAPGKGLEWLGFIRNKANGYTTEYSASVKGRFTISRDNSKNTLYLQMNSLRAEDTAVYYCARDNWFAYWGQGTLVTVSSASTKGPSVFPLAPCSRSTSESTAALGCLVKDYFPEPVTVSWNSGALTSGVHTFPAVLQSSGLYSLSSVVTVPSSNFGTQTYTCNVDHKPSNTKVDKTVERKCCVECPPCPAPPVAGPSVFLFPPKPKDTLMISRTPEVTCVVVDVSHEDPEVQFNWYVDGVEVHNAKTKPREEQFNSTFRVVSVLTVVHQDWLNGKEYKCKVSNKGLPAPIEKTISKTKGQPREPQVYTLPPSREEMTKNQVSLTCLVKGFYPSDIAVEWESNGQPENNYKTTPPMLDSDGSFFLYSKLTVDKSRWQQGNVFSCSVMHEALHNHYTQKSLSLSPGKGGGGSGGGGSEVQLVQSGAEVKKPGESLKISCKGSGYSFTSYWIGWVRQMPGKGLEWMGIIYPGDSDTRYSPSFQGQVTISADKSISTAYLQWSSLKASDTAMYYCARLVVGANPPTYYFDYWGQGTLVTVSS
VL: B1 VL with T2A, A82T, W99S, V100L, L107V
light: B1 light

Tests used:
[1] = target: HER2-Fc (#1129-ER, R&D Systems) (UniProt P04626); assay: SPR, Biacore T100; antibody captured by human Fab binder on CM5 chip, HER2-Fc injected
[2] = target: c-Met-Fc (#358-MT/CF, R&D Systems) (UniProt P08581); assay: SPR, Biacore T100; antibody captured by human Fab binder on CM5 chip, c-Met-Fc injected
Chain of UniProt P08581 (P08581 25-932 limits assumed): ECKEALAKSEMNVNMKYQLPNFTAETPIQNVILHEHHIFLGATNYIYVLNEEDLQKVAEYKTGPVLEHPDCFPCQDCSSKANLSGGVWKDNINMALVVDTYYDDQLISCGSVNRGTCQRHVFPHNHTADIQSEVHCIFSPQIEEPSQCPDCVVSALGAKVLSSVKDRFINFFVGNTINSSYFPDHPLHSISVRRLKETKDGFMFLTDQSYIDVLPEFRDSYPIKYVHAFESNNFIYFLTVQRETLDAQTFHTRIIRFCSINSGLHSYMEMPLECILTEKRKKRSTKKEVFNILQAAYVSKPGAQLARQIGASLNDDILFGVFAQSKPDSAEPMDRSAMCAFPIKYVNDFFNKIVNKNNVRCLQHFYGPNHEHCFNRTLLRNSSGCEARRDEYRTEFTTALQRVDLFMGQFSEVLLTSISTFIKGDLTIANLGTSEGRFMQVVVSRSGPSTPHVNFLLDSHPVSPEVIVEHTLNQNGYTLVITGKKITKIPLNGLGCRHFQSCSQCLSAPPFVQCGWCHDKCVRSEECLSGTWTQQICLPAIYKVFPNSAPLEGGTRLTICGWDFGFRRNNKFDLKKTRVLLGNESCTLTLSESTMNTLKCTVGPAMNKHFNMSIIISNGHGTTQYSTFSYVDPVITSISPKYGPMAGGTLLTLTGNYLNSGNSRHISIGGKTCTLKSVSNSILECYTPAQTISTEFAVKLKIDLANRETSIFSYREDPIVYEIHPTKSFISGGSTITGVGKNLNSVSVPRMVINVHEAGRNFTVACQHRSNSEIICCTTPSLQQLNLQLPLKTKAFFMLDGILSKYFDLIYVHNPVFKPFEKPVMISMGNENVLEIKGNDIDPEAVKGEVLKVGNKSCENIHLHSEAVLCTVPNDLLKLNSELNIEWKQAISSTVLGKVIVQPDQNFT

Binder | Kd [1] | koff [1] | kon [1] | Kd [2] | koff [2] | kon [2]
B1 | < 0.01 nM | < 5.8e-05 s⁻¹ | 200000 M⁻¹ s⁻¹ | 0.04 nM | 1.9e-05 s⁻¹ | 500000 M⁻¹ s⁻¹
B2 | < 0.01 nM | < 1.3e-05 s⁻¹ | 820000 M⁻¹ s⁻¹ | 0.03 nM | 1.5e-05 s⁻¹ | 590000 M⁻¹ s⁻¹
